Here are results for 97 substances from the supplement of paper PMC12042874.

± gives the uncertainty stated by the source.

A short description of this series: amyloid nucleation score (Sup35N fusion, yeast selection) (log enrichment); library NNK3; higher = more nucleation; inactive = no reads after selection. A digest of the protocol:
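Yeast lacking psi expressed peptides of 20 random codons fused to Sup35N, received 100 μM copper sulfate for 24 hours, and were then grown for 7 days at 30°C on medium lacking adenine and uracil. Illumina sequencing of input and output plasmid inserts provided the reads. Nucleation scores are DiMSum log enrichments of output over input, centred on the mode of non-aggregating sequences. Any sequence with under 100 input reads was excluded.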

Turning to NSRYQILITLDLC, the amyloid nucleation score result was “inactive”.
On to NMYGYADYYRAFRDSN, for which the amyloid nucleation score entry is “inactive”.
For the substance GVFCSVINLIDATVVN, the amyloid nucleation score entry was “inactive”.
With VLSFLPCGLIPIISVALWCC, the amyloid nucleation score worked out at 1.17 ± 0.099.
As for NRRNLSLFECLSSTGVSRVN, the amyloid nucleation score result was “inactive”.
Consider SSGPIRLERMDYWHHWGATL, for which the amyloid nucleation score entry was “inactive”.
As to CDVPAKYLGKICDSYALSIF, the amyloid nucleation score result is “inactive”.
CYRYAIMNAFS: the amyloid nucleation score result was “inactive”.
Then SSYVQFYLGWLGRYCNGSYV, with “inactive”; and FNILSLSRTSNYPRHCLFRL, with “inactive”; and LSLKNFMSSFSSLWCGWSDD, with 0.689 ± 0.29.
TYLLNGTILLNPCKLC: the amyloid nucleation score entry was “inactive”.
For the substance SVSSRHSAW, the amyloid nucleation score entry is “inactive”.
As for STAWALAIAAVDRNFDSGWW, the amyloid nucleation score was 0.009 ± 1.1.
For the substance ETLYSCQKGGQRQRKAG, the amyloid nucleation score entry is “inactive”.
As for GCCFLVILWMKYDCYLGDQV, the amyloid nucleation score result is “inactive”.
NYYFT: the amyloid nucleation score entry is “inactive”.
NWIVGSWCKVLSVVEKEW had an amyloid nucleation score of 0.101 ± 0.62.
With MVSLHYVI, the amyloid nucleation score result is “inactive”.
In the case of YYYQNRYFELRHLPEFSS, the amyloid nucleation score entry is “inactive”.
Turning to IMVRSIISGFRLMESRKLDS, the amyloid nucleation score entry was “inactive”.
Take GVLRLVISEHDLDETFVFMT: the amyloid nucleation score came to 0.189 ± 0.43.
Take LVFGLLLS: the amyloid nucleation score result was “inactive”.
Take GRIYFYLVKTDPVQERTQLF: the amyloid nucleation score entry is “inactive”.
In the case of FNSKRW, the amyloid nucleation score entry is “inactive”.
On to VRTVFCNIFFEFRGGSRNWA, for which the amyloid nucleation score was 1.79 ± 0.11.
In the case of VNWHNIKVTEDVKVG, the amyloid nucleation score result was “inactive”.
TYIVAEANVRSVGDEQSMMN: the amyloid nucleation score entry was “inactive”.
Then VTAFATNKVC, with “inactive”; and RYSVYGLNICFL, with 2.45 ± 0.083; and RVQWALLSIKGHCS, with 0.645 ± 0.24.
Then AVMYSCQYRDKWVEVAMVTS, with “inactive”; and RLVLRDPTSTVIVRVPLGFV, with -0.547 ± 1.9; and ERESKNLLQVAYSGYCIVWA, with “inactive”.
Consider ANSNRRECQHNS, for which the amyloid nucleation score came out at 1.06 ± 0.16.
On to YASWKLRTN, for which the amyloid nucleation score result was “inactive”.
As to PNPLRLNNIRRVLARKSKVS, the amyloid nucleation score result was “inactive”.
Take CGLRIRWSNVLYSRRTCGFT: the amyloid nucleation score entry is “inactive”.
TVSIKSAHATRTQVVPNMSF: the amyloid nucleation score result is “inactive”.
For the substance GALAKFLLISKTMRVDMRMV, the amyloid nucleation score result is “inactive”.
For the substance NWDTNFVYSIGIDIY, the amyloid nucleation score entry was “inactive”.
For GQFANPVK, the amyloid nucleation score entry was “inactive”.
CGSWAYRY came in with an amyloid nucleation score of 0.435 ± 0.19.
For the substance YQIMDPNRLAFVTDMLSRDL, the amyloid nucleation score entry was “inactive”.
On to TDMMMFICE, for which the amyloid nucleation score result was “inactive”.
Turning to SRSIMSVLACHRMCERGPIW, the amyloid nucleation score stood at 0.827 ± 0.19.
Consider VFNYVIGPGDKFAD, for which the amyloid nucleation score result is “inactive”.
As to DYITYVYYVSVRF, the amyloid nucleation score is -0.124 ± 0.82.
Then NVDVYVGVPAQVGFVILFWT, with -0.241 ± 0.61.
In the case of DDLMASTMGSSMG, the amyloid nucleation score entry is “inactive”.
The value for LEWERPS was “inactive”.
QYLFCVVGGWIVRYLWPWML: the amyloid nucleation score result is “inactive”.
As for NWVQKRPGQRHFNIASNCV, the amyloid nucleation score entry was “inactive”.
Then SSYSVVFEQ, with “inactive”; and PLFHVFLELYTLPFVENFDV, with “inactive”.
Then GFHLGFHGWNCKLAK, with -0.349 ± 0.49.
The value for IGNFRGL was “inactive”; that for TIMAFIIAIRSLDRCQSSGM was “inactive”.
HSLTENAKREIT: the amyloid nucleation score entry was “inactive”.
YINFISWNVCVSCLFWLDSV yielded an amyloid nucleation score of 2.09 ± 0.054.
As to NLCIWPVTDAHLSLMHYLTP, the amyloid nucleation score result is “inactive”.
ARICVRAFKETCDYKLGCST: the amyloid nucleation score was determined as 0.052 ± 0.66.
As to RGRYWWFYYLAFICMKWYSG, the amyloid nucleation score entry is “inactive”.
Regarding GIASFECGDSCKSVN, the amyloid nucleation score entry was “inactive”.
RKRYFWNHAEISILKTSSSW: the amyloid nucleation score entry was “inactive”.
VVSIYVGSYMSIICKS gave an amyloid nucleation score of 1.95 ± 0.059.
In the case of LFSNTRVSSGYRSRLLSRCL, the amyloid nucleation score entry is “inactive”.
On to DGQARISRYSTWLEEFLRCG, for which the amyloid nucleation score entry is “inactive”.
As to SSRRYS, the amyloid nucleation score result was “inactive”.
On to ITMCIIHHRHLMATSFM, for which the amyloid nucleation score was 0.752 ± 0.18.
For the substance LHLNGAYMAFLIVMSCMHFS, the amyloid nucleation score result was “inactive”.
As for ANHNLYRDDDREYFFMLCY, the amyloid nucleation score result is “inactive”.
NIPVSYYVVNGLIAEMLFIS gave an amyloid nucleation score of 0.409 ± 0.27.
With GYNICWTPWYAVLDGVTKML, the amyloid nucleation score entry was “inactive”.
With NMTVGHILFLMMTCAMYVNN, the amyloid nucleation score result was “inactive”.
Take YLSICVMFLVASRVRSISSI: the amyloid nucleation score entry was “inactive”.
For the substance ATIIPICSHLIDHSVSLDQG, the amyloid nucleation score entry is “inactive”.
ETPSALCILYVFYCHAYWSH: the amyloid nucleation score result is “inactive”.
Take LVYNLNRKRGCKGVPVLRYS: the amyloid nucleation score entry was “inactive”.
On to AGVDWQILV, for which the amyloid nucleation score result is “inactive”.
On to SWSTSNVVLNL, for which the amyloid nucleation score stood at 1.99 ± 0.072.
As to IKWEQRLVVYIAYKKHRWQR, the amyloid nucleation score result was “inactive”.
The value for SYWYACGKYADNSMER was “inactive”; that for FGWLYNLNVSDIGTGD was “inactive”; that for ESVRRMLLTLGAHWGSPIHF was “inactive”.
Turning to PNGSYAKQLLVSIL, the amyloid nucleation score entry was “inactive”.
RAMCIESTYLVMPYTTCNQT: the amyloid nucleation score entry is “inactive”.
For YLSTL, the amyloid nucleation score entry was “inactive”.
With WTMSLLQFDLDTSTSTLTMV, the amyloid nucleation score result was “inactive”.
NKAIILHVM: the amyloid nucleation score entry was “inactive”.
INYYFWTSGK yielded an amyloid nucleation score of 0.731 ± 0.3.
SYANIWVIHKLDGFMESSLL: the amyloid nucleation score entry was “inactive”.
For the substance YFAVMGGITLHLFAVIRSCL, the amyloid nucleation score result is “inactive”.
Then LNQYLYFVRDMGDVMFCLYF, with “inactive”; and DGNGLNTRGNLTSGIFHRQY, with “inactive”.
For LDTLLVYHFRKERVLNTGVN, the amyloid nucleation score entry is “inactive”.
With GTLWNSIFACVFQCSERSIM, the amyloid nucleation score entry was “inactive”.
